{"source": "paper PMC9168836", "about": "“Clamping of DNA shuts the condensin neck gate” (Proceedings of the National Academy of Sciences of the …, 2021)", "key": {"[1]": {"target": "T1, Smc2 (budding yeast (S. cerevisiae), UniProt P38989 1-1170)", "T1 construct": "Smc2, SMC subunit of budding yeast (S. cerevisiae) condensin; only the head domain and proximal coiled coil (neck) are resolved in the maps; Subunit of the wild-type condensin tetramer and pentamer used for cryo-EM", "T1 sequence": "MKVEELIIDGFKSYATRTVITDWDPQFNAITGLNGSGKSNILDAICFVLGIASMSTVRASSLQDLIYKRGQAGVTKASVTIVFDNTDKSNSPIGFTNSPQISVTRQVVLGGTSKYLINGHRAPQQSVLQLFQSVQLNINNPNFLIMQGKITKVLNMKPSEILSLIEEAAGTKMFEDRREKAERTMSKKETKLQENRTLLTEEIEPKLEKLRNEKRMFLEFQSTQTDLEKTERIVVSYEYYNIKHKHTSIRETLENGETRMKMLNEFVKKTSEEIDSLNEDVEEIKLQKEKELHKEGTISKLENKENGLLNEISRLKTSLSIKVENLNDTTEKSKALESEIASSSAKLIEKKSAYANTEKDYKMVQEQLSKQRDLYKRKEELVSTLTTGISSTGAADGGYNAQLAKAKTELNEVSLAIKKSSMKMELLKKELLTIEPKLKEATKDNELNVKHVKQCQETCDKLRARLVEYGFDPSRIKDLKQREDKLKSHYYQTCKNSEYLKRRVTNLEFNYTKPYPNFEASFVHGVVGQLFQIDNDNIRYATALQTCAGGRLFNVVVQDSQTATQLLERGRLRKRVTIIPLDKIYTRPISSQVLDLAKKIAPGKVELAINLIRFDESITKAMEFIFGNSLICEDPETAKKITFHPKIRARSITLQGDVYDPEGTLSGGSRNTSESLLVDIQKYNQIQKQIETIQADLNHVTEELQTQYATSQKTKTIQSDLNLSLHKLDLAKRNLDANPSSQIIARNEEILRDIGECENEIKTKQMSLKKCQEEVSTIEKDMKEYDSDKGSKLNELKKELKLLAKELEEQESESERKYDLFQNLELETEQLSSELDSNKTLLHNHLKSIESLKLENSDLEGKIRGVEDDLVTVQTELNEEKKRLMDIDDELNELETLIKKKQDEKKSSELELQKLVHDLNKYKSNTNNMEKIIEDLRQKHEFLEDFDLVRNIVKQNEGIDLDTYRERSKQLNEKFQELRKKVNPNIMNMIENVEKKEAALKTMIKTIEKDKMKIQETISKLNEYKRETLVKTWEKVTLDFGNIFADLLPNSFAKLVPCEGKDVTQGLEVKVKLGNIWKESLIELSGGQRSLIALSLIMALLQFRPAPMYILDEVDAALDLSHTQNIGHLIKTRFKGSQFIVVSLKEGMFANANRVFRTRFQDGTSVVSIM", "assay": "cryo-EM structure; condensin pentamer with 100 nM relaxed circular DNA (1,789 bp), 5 mM ADP, 1 mM BeSO4, 10 mM NaF in TNT buffer pH 7.5; VPP and non-VPP images; low-resolution maps of the head module and of Ycg1-DNA", "settings": "both partners purified"}, "[2]": {"target": "T2, Ycs4 (S. cerevisiae, UniProt Q06156 1-1176)", "T2 construct": "Ycs4, HAWK (HEAT repeat) subunit of S. cerevisiae condensin", "T2 sequence": "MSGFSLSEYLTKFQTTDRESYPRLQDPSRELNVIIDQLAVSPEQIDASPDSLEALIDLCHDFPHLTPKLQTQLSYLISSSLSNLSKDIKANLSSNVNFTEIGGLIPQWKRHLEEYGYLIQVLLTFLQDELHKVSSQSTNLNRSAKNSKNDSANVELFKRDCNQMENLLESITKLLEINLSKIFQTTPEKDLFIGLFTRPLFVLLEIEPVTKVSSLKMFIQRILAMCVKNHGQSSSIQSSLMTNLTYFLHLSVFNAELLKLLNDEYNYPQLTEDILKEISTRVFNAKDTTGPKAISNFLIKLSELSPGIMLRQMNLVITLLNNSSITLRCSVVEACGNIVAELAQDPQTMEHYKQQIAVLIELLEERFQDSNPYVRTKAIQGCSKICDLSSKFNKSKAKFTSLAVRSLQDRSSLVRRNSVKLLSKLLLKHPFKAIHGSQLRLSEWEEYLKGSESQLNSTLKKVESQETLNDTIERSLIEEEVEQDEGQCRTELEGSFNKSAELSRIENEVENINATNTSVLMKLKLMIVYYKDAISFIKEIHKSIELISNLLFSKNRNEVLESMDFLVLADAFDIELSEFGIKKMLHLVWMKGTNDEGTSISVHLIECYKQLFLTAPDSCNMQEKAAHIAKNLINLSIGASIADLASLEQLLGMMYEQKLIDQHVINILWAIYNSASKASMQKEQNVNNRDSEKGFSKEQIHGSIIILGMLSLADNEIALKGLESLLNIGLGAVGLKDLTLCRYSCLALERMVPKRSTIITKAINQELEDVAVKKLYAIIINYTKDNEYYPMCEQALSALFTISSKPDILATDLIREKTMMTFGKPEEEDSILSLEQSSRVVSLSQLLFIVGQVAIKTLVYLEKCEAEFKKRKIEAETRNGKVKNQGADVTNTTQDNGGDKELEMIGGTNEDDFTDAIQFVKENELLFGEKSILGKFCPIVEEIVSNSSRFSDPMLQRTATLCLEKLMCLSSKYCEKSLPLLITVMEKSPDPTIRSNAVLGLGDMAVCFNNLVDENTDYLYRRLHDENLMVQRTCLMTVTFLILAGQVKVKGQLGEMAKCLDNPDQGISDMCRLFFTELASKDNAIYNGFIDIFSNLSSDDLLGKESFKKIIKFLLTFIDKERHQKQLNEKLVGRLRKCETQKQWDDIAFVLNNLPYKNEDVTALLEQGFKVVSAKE", "assay": "cryo-EM structure; condensin pentamer with 100 nM relaxed circular DNA (1,789 bp), 5 mM ADP, 1 mM BeSO4, 10 mM NaF in TNT buffer pH 7.5; VPP and non-VPP images; low-resolution maps of the head module and of Ycg1-DNA", "settings": "both partners purified"}}, "data": [{"binder": "Brn1-HA3-His12 (natural protein, budding yeast (S. cerevisiae), UniProt P38170 1-754, looked up, Brn1, kleisin subunit of budding yeast (S. cerevisiae) condensin; 754 residues as printed (279/754 traced in the head module map); The tags' end is read from the plasmid's name BRN1-HA3-His12; also called kleisin Brn1) MTTQLRYENNDDDERVEYNLFTNRSTMMANFEEWIKMATDNKINSRNSWNFALIDYFYDLDVLKDGENNINFQKASATLDGCIKIYSSRVDSVTTETGKLLSGLAQRKTNGASNGDDSNGGNGEGLGGDSDEANIEIDPLTGMPISNDPDVNNTRRRVYNRVLETTLVEFETIKMKELDQELIIDPLFKKALVDFDEGGAKSLLLNTLNIDNTARVIFDASIKDTQNVGQGKLQRKEEELIERDSLVDDENEPSQSLISTRNDSTVNDSVISAPSMEDEILSLGMDFIKFDQIAVCEISGSIEQLRNVVEDINQAKDFIENVNNRFDNFLTEEELQAAVPDNAEDDSDGFDMGMQQELCYPDENHDNTSHDEQDDDNVNSTTGSIFEKDLMAYFDENLNRNWRGREHWKVRNFKKANLVNKESDLLEETRTTIGDTTDKNTTDDKSMDTKKKHKQKKVLEIDFFKTDDSFEDKVFASKGRTKIDMPIKNRKNDTHYLLPDDFHFSTDRITRLFIKPGQKMSLFSHRKHTRGDVSSGLFEKSTVSANHSNNDIPTIADEHFWADNYERKEQEEKEKEQSKEVGDVVGGALDNPFEDDMDGVDFNQAFEGTDDNEEASVKLDLQDDEDHKFPIRENKVTYSRVSKKVDVRRLKKNVWRSINNLIQEHDSRKNREQSSNDSETHTEDESTKELKFSDIIQGISKMYSDDTLKDISTSFCFICLLHLANEHGLQITHTENYNDLIVNYEDLATTQAAS", "values": [{"measurement": "binding result", "setting": "[1]", "value": "binds"}, {"measurement": "binding result", "setting": "[2]", "value": "binds"}]}]}
